Patent US20020049180A1

Molecular target: GST-fusion protein containing amino acids 327-517 of KIAA0175 (human) (UniProt Q14680)
Experiment: cell-based or functional assay

## Ataxia telangiectasia mutated (ATM) (from UniProt Q13315 2-3056) (enzyme)
  increase of phosphorylation by ATM immunoprecipitated from gamma-irradiated cells: 2 to 3 fold
